Results on 6 molecules are retold here after patent US20160228506A1, “Compositions and Formulations for Prevention and Reduction of Tumorigenesis, Cancer Cell Proliferation and Invasion, and Methods of Production and Use Thereof in Cancer Treatment” (PRONUTRIA, INC., priority 2013, published 2016).

This data set can be described thus: SGF digest of 168 nutritive polypeptide library, intact protein by LC-MS/MS. Type of data set: in vitro ADME. To be noted: 168 nutritive polypeptide library SGF digest, LC-MS/MS spectral counts. As for the experimental part:
The in vitro intact half-life of multiple polypeptides in a complex mixture was determined using the simulated gastric in vitro digestion described above. Briefly, the 168 nutritive polypeptide library was generated as described herein by cloning, transforming, and expressing a gene library encoding 168 proteins as a single mixture. The recombinantly expressed proteins were purified from host cell proteins by IMAC purification as described herein.
The 168 Protein Library was treated with SGF as described above and the t=0 and t=10 min samples were analyzed for intact protein by LC-MS/MS. To begin, 10 μg of sample was loaded onto a 10% SDS-PAGE gel (Invitrogen) and run approximately 5 cm into the gel. The gel was excised into ten fractions from 100 kD to the dye front and the gel slices were processed by washing with 25 mM ammonium bicarbonate, followed by acetonitrile. Gel fractions were then reduced with 10 mM dithiothreitol at 60° C., followed by alkylation with 50 mM iodoacetamide at room temperature. Finally, the samples were digested with trypsin (Promega) at 37° C. for 4 h and the digestions were quenched with the addition of formic acid. The samples were then analyzed by nano LC/MS/MS using an EasynLC 1000 HPLC system interfaced to a ThermoFisher Q Exactive. Peptides were loaded on a trapping column and eluted over a 75 μm analytical column at 350 nL/min; both columns were packed with PepMap C18 3 μm resin (ThemoFisher). A 1 hour gradient was employed. The mass spectrometer was operated in data-dependent mode, with MS and MS/MS performed in the Orbitrap at 70,000 FWHM resolution and 17,500 FWHM resolution, respectively. The fifteen most abundant ions were selected for MS/MS. Data were searched against an appropriate database using Mascot to identify peptides. Mascot DAT files were parsed into the Scaffold software for validation, filtering and to create a nonredundant list per sample. Data were filtered at 1% protein and peptide false discovery rate (FDR) and requiring at least two unique peptides per protein. A full list of detected proteins and their spectral counts (SpC) was generated and reported as a function of each collected gel fraction. SpC are a count of the number of spectra identified for a given protein and are used as a measure of relative protein abundance (Liu, H. et al., Analytical Chemistry 2004, 76: 4193-4201). To calculate the percentage of intact protein remaining at the 10 min time point of the SGF digest the number of SpC representative of intact peptide in the t=10 min sample were divided by the number of SpC representative of intact peptide in the t=0 min sample. The number of SpC representative of intact peptide was defined as the sum of the SpC in the fraction with the highest number of SpC assigned to that protein in the t=0 min sample and the two flanking fractions.

B1: SEQID-00497: protein of the 168 nutritive polypeptide library (protein, listed as Saccharomyces cerevisiae)
chain: MSIASYAQELKLALHQYPNFPSEGILFEDFLPIFRNPGLFQKLIDAFKLHLEEAFPEVKIDYIVGLESRGFLFGPTLALALGVGFVPVRKAGKLPGECFKATYEKEYGSDLFEIQKNAIPAGSNVIIVDDIIATGGSAAAAGELVEQLEANLLEYNFVMELDFLKGRSKLNAPVFTLLNAQKEALKK
modifications: source: /note="strain ATCC 204508 / S288c"
notes: protein of the 168 nutritive polypeptide library
B1: the “% Intact Protein at 10 min” value amounted to 20.3%.

B2: SEQID-00507: protein of the 168 nutritive polypeptide library (protein, listed as Agaricus bisporus)
chain: MISFYDLTAKPPFKTVSVNSWKIRYALNFKNLPYKTLYFEFPDMAKEFSKVGIPPSSVSADGPSYTVPSLIDDSTNTRISESFTIALYLDKQYPDAPKLFPAGTEALQAAFHEEFYKVMSPTFPFFFPKAGNVLNKPSDDYFAVTRAKMFGMSMADFEPKGEARVEAWKKVKDAFDTLESWMSKTSGPFFMGETVSFADFVIGGLLNEFSMCMGENSPEWQDVLKWNNGRWATLKKKLEVYANTDQ
modifications: source: /note="var. bisporus"; source: /note="strain H97 / ATCC MYA-4626 / FGSC 10389"
notes: as for B1
For the molecule B2, the “% Intact Protein at 10 min” value turned out to be 0%.

B3: SEQID-00489: protein of the 168 nutritive polypeptide library (protein, listed as Saccharomyces cerevisiae)
chain: MSVEEVSKKFEENVSVDDTTATPKTVLSDSAHFDVKHPLNTKWTLWYTKPAVDKSESWSDLLRPVTSFQTVEEFWAIIQNIPEPHELPLKSDYHVFRNDVRPEWEDEANAKGGKWSFQLRGKGADIDELWLRTLLAVIGETIDEDDSQINGVVLSIRKGGNKFALWTKSEDKEPLLRIGGKFKQVLKLTDDGHLEFFPHSSANGRHPQPSITL
modifications: source: /note="strain ATCC 204508 / S288c"
notes: as for B1
As to B3, the “% Intact Protein at 10 min” value was determined as 0%.

B4: SEQID-00509: protein of the 168 nutritive polypeptide library (protein, listed as Gadus morhua)
chain: MSDTEDVDQVEDEKPKFKPSAPKIPDGEKVDFDDIQKKRQNKDLSELQGLIDAHFEGRKKEEEELIALKERIEKRRAERAEQQRIRSEKDKERQARREEERLKREEADAKKKMEEDAKKKSALSNMGSNYSSHLQKADQKRGGGKKETEREKKKKILAARRKGLNIDHLNEDKLKDKINELHEWMSTLESEKFDHMERLNRQKYEVTTLRKRVEELSKFSKKGKTVRRK
B4: the “% Intact Protein at 10 min” value is reported as 36.4%.

B5: SEQID-00495: protein of the 168 nutritive polypeptide library (protein, listed as Vitis vinifera)
chain: MEKNVESDPNPPLASGPEFPPATTPADVKNDVALEKSVVPPPEVKADESKALAVVEKTPDSAAKKTSGGSFERDVALANLEKEKQLSFIRAWEESEKSKVDNKAQKKLSDVCAWENSKKAAVEANLKKIEEELEKKKAEYAEKMKNKVALIHKQAEEKKAMIEARRGEEFLKAEEMAAKFRATGQTPKKVLGCFGG
For B5, the “% Intact Protein at 10 min” value came to 0%.

B6: SEQID-00484: protein of the 168 nutritive polypeptide library (protein, listed as Saccharomyces cerevisiae)
chain: MSEKFPPLEDQNIDFTPNDKKDDDTDFLKREAEILGDEFKTEQDDILETEASPAKDDDEIRDFEEQFPDINSANGAVSSDQNGSATVSSGNDNGEADDDFSTFEGANQSTESVKEDRSEVVDQWKQRRAVEIHEKDLKDEELKKELQDEAIKHIDDFYDSYNKKKEQQLEDAAKEAEAFLKKRDEFFGQDNTTWDRALQLINQDDADIIGGRDRSKLKEILLRLKGNAKAPGA
modifications: source: /note="strain ATCC 204508 / S288c"
notes: as for B1
B6: the “% Intact Protein at 10 min” value was found to be 0%.
